Data on eleven molecules can be found in patent US20250092148A1 (Kyowa Kirin, published 2025).

The labels stand for the following.
T1: human CD116 soluble antigen (His-tag form) (human, UniProt P15509 23-320)
T1 construct: extracellular domain; expressed in Expi293F cells; also called hCD116-His
T1 sequence (looked up): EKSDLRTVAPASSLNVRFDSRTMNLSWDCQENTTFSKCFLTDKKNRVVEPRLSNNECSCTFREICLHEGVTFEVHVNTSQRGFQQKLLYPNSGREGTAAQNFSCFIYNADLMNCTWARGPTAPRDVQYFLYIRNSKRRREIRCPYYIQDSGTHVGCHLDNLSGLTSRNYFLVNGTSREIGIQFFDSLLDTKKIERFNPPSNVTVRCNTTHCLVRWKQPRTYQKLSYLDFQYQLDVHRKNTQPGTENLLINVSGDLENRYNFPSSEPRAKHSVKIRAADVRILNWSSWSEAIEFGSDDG

B1: 116-413 (Fab, V domains shown)
VH: QVQLVQSGAEVKKPGASVKVSCKVSGYTLTDLSMHWVRQAPGKGLEWMGGFDPEDGETIYAQKFQGRVTMTEDTSTDTAYMELSSLRSEDTAVYYCATGLFYYQYGMDVWGQGTTVTVSS
VL: not shown
notes: phage library clone, E. coli culture supernatant
B2: 116-464 (Fab, V domains shown)
VH: QVQLVQSGAEVKKPGASVKVSCKVSGYTLTDLSMHWVRQAPGKGLEWMGGFDPEDGERIYAQKFQGRVTMTEDTSTDTAYMELSSLRSEDTAMYYCATGLFYYQYGMDVWGQGTTVTVSS
VL: not shown
notes: as for B1
B3: 116-466 (Fab, V domains shown)
VH: QVQLVQSGAEVKKPGASVKVSCKVSGYTLTDLSMHWVRQAPGKGLEWMGGFDPEDGERIYAQKFQDRVTMTEDTSTDTAYMELSSLRSEDTAVYYCATGLFYYQYGMDVWGQGTLVTVSS
VL: not shown
notes: as for B1
B4: 116-412 (Fab, V domains shown)
VH: EVQLVQSGAEVKKPGASVKVSCKVSGYTLTDLSMHWVRQAPGKGLEWMGGLDPEDGETIYAQKFQGRVTMTEDTSTDTAYMELSSLRSEDTAVYYCATGLFYYQYGMDVWGQGTLVTVSS
VL: not shown
notes: as for B1
B5: 116-421 (Fab, V domains shown)
VH: QVQLQQSGAEVKKPGASVKVSCKVSGYTLTDLSMHWVRQAPGKGLEWMGGFDPEDGERIYAQKFQGRVTMTEDTATDTAYMELSSLRSEDTAVYHCATGLFYYQYGMDVWGQGTTVTVSS
VL: not shown
notes: as for B1
B6: 116-398 (Fab, V domains shown)
VH: EVQLVQSGAEVKKPGASVKVSCKVSGYTLAELSMHWVRQAPGKGLEWMGGFDPEDGERIYAQKFQGRVTMTEDTSKDTAYMELSSLRSEDTAVYYCTTGLFYYQYGMDVWGQGTMVTVSS
VL: not shown
notes: phage library clone, tested as E. coli culture supernatant (FLAG-His tag)
B7: 116-465 (Fab, V domains shown)
VH: QVQLVQSGAEVKKPGASVKVSCKVSGYPLTDLSMHWVRQAPGEGLEWMGGSDPEDGETIYAQKFQGRVTVTEDTSTDTAYMELSNLRSEDTAVYYCATGLFYYQYGMDVWGQGTTVTVSS
VL: not shown
notes: as for B1
B8: 116-433 (Fab, V domains shown)
VH: QVQLVQSGAEVKKPGASVKVSCKVSGYTLTDFAIHWVRQAPGKGLEWMGGFDPEDGERIYAQKFQGRVTMTEDTSTDTAYMELSSLRSEDTAVYYCTTGLFYYQYGMDVWGQGTLVTVSS
VL: not shown
notes: as for B1
B9: 116-439 (Fab, V domains shown)
VH: QVQLQQSGAEVKKPGASVKVSCKVSGYTLTDLSMHWVRQAPGKGLEWMGGFDPEDGERIYAQKFQGRVTMTEDTSTDTAYMELSSLRSEDTAVYYCATGLFYYQYGMDVWGQGTLVTVSS
VL: not shown
notes: as for B1
B10: 116-463 (Fab, V domains shown)
VH: QVQLVQSGAEVKKPGASVKVSCKVSGYTLTDFAIHWVRQAPGKGLEWMGGFDPEDGERIYAQKFQGRVTMTEDTSTDTAYMELSSLRSEDTAVYYCATGLFYYQYGMDVWGQGTTVTVSS
VL: not shown
notes: as for B1
B11: 116-435 (Fab, V domains shown)
VH: EVQLVQSGAEVKKPGASVKVSCKVSGYTLTELSMHWVRQAPGKGLEWMGGFDPEDGERIYAQKFQGRVTMTEDTSTDTAYMELSSLRSEDTAVYYCATGLFYYQYGMDVWGQGTTVTVSS
VL: not shown
notes: as for B1

This experiment concerns the target T1, human CD116 soluble antigen (His-tag …). The experiment can be described thus: screening by ELISA on biotinylated antigen and by flow cytometry, E. coli supernatant. For orientation: An ELISA detects its analyte on a solid surface through an enzyme-linked reagent.
Description: Using the obtained monoclonal Escherichia coli culture supernatant, screening for clones that bind to both human CD116 and monkey CD116 was performed by ELISA and FCM described below.
In screening by ELISA, a MAXISORP plate (manufactured by NUNC Corporation) was immobilized with streptavidin (manufactured by Thermo Fisher Scientific) and blocked using 1% BSA-PBS (manufactured by Nacalai Tesque, Inc.), and then the biotinylated human CD116 soluble antigen (His-tag form) or the biotinylated monkey CD116 soluble antigen (His-tag form) binds thereto. Each Escherichia coli culture supernatant was added to each well of the plate and allowed to react for 60 minutes at room temperature, and then each well was washed 3 times with PBS-T.
Next, HRP-labeled Goat poly, anti-human IgG F(ab′)₂ (manufactured by Abcam) was diluted 1000 times with 1% BSA-PBS, and 50 μL thereof was added to each well, followed by incubating at room temperature for 30 minutes. After washing the microplate 3 times with PBS-T, 50 μL of TMB color developing substrate solution (manufactured by DAKO) was added to each well, followed by incubating at room temperature for 10 minutes. A 2N HCl solution (50 μL/well) was added to each well to stop the color developing reaction, and an absorbance at a wavelength of 450 nm (reference wavelength: 570 nm) was measured using a plate reader (EnSpire: manufactured by PerkinElmer).
Take B1: the binding result is recorded as “binds”.

B2: the binding result is on record as “binds”.

For the molecule B3, the binding result is reported as “binds”.

For B4, the binding result is reported as “binds”.

For the molecule B5, the binding result is on record as “binds”.

As to B6, the binding result is recorded as “binds”.

In the case of B7, the binding result is given as “binds”.

As to B8, the binding result is reported as “binds”.

As to B9, the binding result is “binds”.

Regarding B10, the binding result is “binds”.

As for B11, the binding result was “binds”.
